Tested on: MLO-Y4 cells
Test: Integrin-like signaling (pFAK, pZyxin, pAKT, pCREB) in MLO-Y4 cells, immunoblot
Type: cell-based
Method: Integrin heterodimer binds to its ligand. The interaction results in phosphorylation of FAK and Zyxin, followed by phosphorylation of AKT (at T308) and CREB. PM is plasma membrane. FIG. 2C and FIG. 2D show the immunoblots. MLO-Y4 cells were seeded and incubated until 60% cell density. The cells were incubated with serum free medium (FreeStyle™ 293 medium) for 4 hours and were treated for indicated time with 10 nM norepinephrine or irisin (FIG. 2C) or indicated concentrations of irisin for 10 minutes (FIG. 2D). Cells were lysed to detect the indicated protein level using immunoblot analysis.
Certain materials and methods were used to generate the results described herein. For example, the data shown in FIG. 1A resulted from MLO-Y4 (an osteocyte-like cell line) cells treated with the indicated concentration of irisin and hydrogen peroxide for 4 hours. Cells were stained with Hoechst 33342 (ThermoFisher Scientific, catalog number H3570) and Eth-D1 (ThermoFisher Scientific, catalog number E1169) and analyzed to determine the percentage of cell death using ImageJ. The data shown in FIG. 2D resulted from MLO-Y4 incubated in serum free medium (FreeStyle™ 293 expression medium, ThermoFisher Scientific, catalog number 12338018) for 4 hours followed by treatment of indicated concentrations of irisin for 10 minutes. Cells were lysed to detect the indicated protein level using immunoblot analysis (Cell Signaling Technology, catalog numbers 3283S, 3285S, 8467S, 3553S, 9198S, and 9104S; Abcam, catalog number ab49900-100ul). The data shown in FIG. 3 resulted from 3T3-F442A cells incubated in serum free medium for 4 hours followed by treatment of indicated concentrations of irisin for 10 minutes. Cells were lysed by RIPA buffer to detect the indicated protein level using immunoblot analysis. The data shown in FIG. 4 were generated from 100 nM flag-tagged irisin (Enzo life sciences, catalog number ADI-908-307-3010) incubated with 5 nM of the indicated 6 his-tag integrins (R & D Systems Inc., catalog numbers 7064-AB-025, 5668-A4-050, 5438-A9-050, 6357-AB-050, and 6579-AV-025) in the presence of RGDS peptide (R & D Systems Inc., catalog number 3498/10) or its control peptide (Enzo Life Sciences, catalog Number BML-P701-0005) followed by immunoprecipitation using 6 his-tag beads (ThermoFisher Scientific, catalog number R901-01). Co-precipitated irisin was analyzed by immunoblot analysis against flag tag (Sigma Aldrich, catalog number A8592). The data shown in FIGS. 5A and 5B were generated from MLO-Y4 cells treated and analyzed as in the experiments used to generate the data shown in FIG. 2D, except that pre-treatment of 100 nM RGDS (FIG. 5A) or echistatin (R & D Systems Inc., catalog number 3202/100U) (FIG. 5B) for 10 minutes was performed before irisin treatment. The data shown in FIGS. 6A and 6B were generated from MLO-Y4 cells incubated in serum free medium for 3 hours followed by treatment of indicated time of 10 nM irisin for 16 hours. RNAs were extracted from the cells and the sclerostin mRNA level was analyzed by qPCR (FIG. 6A) or treated and analyzed as in (FIG. 6A), except that pre-treatment of 10 μM RGDS, RGDyK (Selleck, catalog number S7844), or echistatin was performed for 10 minutes before irisin treatment. The data shown in FIGS. 7A and 7B were generated from 8 week-old mice injected with the indicated dose of irisin for 6 days. Tibias were collected and treated with collagenase to obtain mRNA from the osteocyte-enriched bones. Sclerostin mRNA level was analyzed by qPCR (FIG. 7A). Serum was collected to analyze the sclerostin protein level using ELISA kit (R&D Systems Inc., catalog number MSST00) (FIG. 7B). The data shown in FIG. 8 were generated from 8 week-old mice injected with the indicated dose of irisin for 6 days. Epididymal fats were collected, RNAs were extracted from the tissues, and mRNA levels of the indicated genes were analyzed by qPCR. […]

B1: irisin: secreted cleaved form of FNDC5; recombinant human/mouse irisin with C-terminal his tag produced in HEK293 cells (protein)
chain: DSPSAPVNVTVRHLKANSAVVSWDVLEDEVVIGFAISQQKKDVRMLRFIQEVNTTTRSCALWDLEEDTEYIVHVQAISIQGQSPASEPVLFKTPREAEKMASKNKDEVTMKE
modifications: left off: small tags and cut ends
notes: secreted cleaved form of FNDC5; recombinant human/mouse irisin with C-terminal his tag produced in HEK293 cells
MLO-Y4, 10 nM irisin
  phosphorylation of AKT on threonine 308: phosphorylated on threonine 308
  phosphorylation of AKT serine at amino acid 473: not induced
  time after which CREB was phosphorylated: 5 min
  time to phosphorylation of FAK: 1 min
MLO-Y4, irisin dose response, 10 minutes
  phosphorylation of Zyxin: phosphorylated potently
MLO-Y4, serum free medium 4 hours, irisin 10 minutes
  irisin dose as low as which induced phosphorylation of FAK: 10 pM

Reference: US20210063414A1, “METHODS FOR PREVENTING AND/OR TREATING BONE LOSS CONDITIONS BY MODULATING IRISIN” (Dana-Farber Cancer Institute, Inc., priority 2018, published 2021)
